This is an account of results in US11472855, “RNA-binding protein” (Panitch Schwarze Belisario & Nadel LLP).

The test system of data set [1] is hPUF_MT(R5:G_13R)3(R6:U_13R)3 Y13R in the R6:U repeats. As to the kind of experiment: EMSA. The settings on record: text inconsistent: number 2 greater but prints Tyr>Arg. (In general: Mobility shift assays separate free from complexed probe on a gel.)
The subject of data set [2] is hPUF_MT(R5:A_13R)3(R6:G_13R)3 Y13R in the R6:G repeats. As to the kind of experiment: EMSA. As to conditions: 13Y at least 30 times greater.
Data set [3] concerns hPUF_MT(R5:A_13R)3(R6:C_13R)3 Y13R in the R6:C repeats. As to the kind of experiment: EMSA. As to conditions: 13Y about 3 times greater.
Data set [4] concerns hPUF_MT(R5:C_13R)3(R6:U_13R)3 Y13R in the R6:U repeats. Nature of the data set: EMSA.
Data set [5] concerns hPUF_MT(R5:A_13R)3(R6:U_13R)3 Y13R in the R6 repeats. Nature of the data set: EMSA. As to conditions: 13Y at least 30 times greater.
In data set [6] the test system is hPUF_MT(R5:G_13R)(R5:G_13Y)2(R6:U_13Y)3 R13Y in the second and third R5 repeats (Homo sapiens). As to the kind of experiment: EMSA. The settings on record: FIG. 61; Arg>Tyr between G and U; 4 C; construct name in text appears misprinted as A/G version.
Data set [7] has as its target T1, hPUF_MT(1-2-5-6-5-6-5-6-5-6-7-8).
T1 chain: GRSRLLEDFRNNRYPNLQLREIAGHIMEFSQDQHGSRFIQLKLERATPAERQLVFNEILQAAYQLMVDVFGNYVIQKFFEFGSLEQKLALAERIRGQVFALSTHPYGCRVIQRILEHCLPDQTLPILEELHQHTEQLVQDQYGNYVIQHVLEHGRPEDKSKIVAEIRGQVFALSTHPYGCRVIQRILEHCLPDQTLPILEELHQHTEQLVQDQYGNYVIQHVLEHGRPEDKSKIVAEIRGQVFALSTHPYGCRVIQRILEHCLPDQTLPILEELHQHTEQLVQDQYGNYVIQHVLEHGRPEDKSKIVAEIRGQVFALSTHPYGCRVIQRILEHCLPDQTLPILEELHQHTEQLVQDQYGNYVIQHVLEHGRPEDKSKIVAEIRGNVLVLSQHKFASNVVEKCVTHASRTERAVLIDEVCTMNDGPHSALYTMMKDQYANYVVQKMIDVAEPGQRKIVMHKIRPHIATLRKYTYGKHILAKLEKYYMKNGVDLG
As to the kind of experiment: EMSA; greater than MT(R3→R5, R4→R6). As to conditions: label: Alexa680 at 5' and 3'.

The target of data set [8] is T2, hPUF_MT(R2_N12S,Q16R, R3→R5, R4→R6) (R2 repeat N12S,Q16R).
T2 chain: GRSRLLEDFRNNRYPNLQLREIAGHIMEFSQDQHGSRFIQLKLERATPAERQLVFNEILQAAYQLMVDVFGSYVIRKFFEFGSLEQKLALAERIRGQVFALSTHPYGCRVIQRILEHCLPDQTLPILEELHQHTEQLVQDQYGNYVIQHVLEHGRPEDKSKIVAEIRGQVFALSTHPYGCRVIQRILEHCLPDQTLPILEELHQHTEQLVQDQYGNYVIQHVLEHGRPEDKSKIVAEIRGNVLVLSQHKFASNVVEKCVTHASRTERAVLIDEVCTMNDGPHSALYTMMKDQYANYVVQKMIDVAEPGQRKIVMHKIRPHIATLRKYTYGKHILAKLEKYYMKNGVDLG
As to the kind of experiment: EMSA; binds C exclusively. The settings on record: label: Alexa680 at 5' and 3'.

In data set [9] the target is T3, hPUF_MT(R2_N12S,Q16E, R3→R5, R4→R6) (R2 repeat N12S,Q16E).
T3 chain: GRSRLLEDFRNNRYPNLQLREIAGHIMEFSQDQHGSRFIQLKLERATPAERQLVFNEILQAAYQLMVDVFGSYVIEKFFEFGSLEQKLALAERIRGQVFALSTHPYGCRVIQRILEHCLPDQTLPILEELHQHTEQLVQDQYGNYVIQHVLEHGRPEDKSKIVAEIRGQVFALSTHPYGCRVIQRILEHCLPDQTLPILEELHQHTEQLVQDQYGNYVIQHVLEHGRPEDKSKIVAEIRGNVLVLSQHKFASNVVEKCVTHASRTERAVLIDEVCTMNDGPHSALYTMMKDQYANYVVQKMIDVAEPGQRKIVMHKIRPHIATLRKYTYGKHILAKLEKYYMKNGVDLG
Nature of the data set: EMSA; binds G exclusively. As to conditions: label: Alexa680 at 5' and 3'.

In data set [10] the target is T4, hPUF_MT(R3→R5, R4→R6).
T4 chain: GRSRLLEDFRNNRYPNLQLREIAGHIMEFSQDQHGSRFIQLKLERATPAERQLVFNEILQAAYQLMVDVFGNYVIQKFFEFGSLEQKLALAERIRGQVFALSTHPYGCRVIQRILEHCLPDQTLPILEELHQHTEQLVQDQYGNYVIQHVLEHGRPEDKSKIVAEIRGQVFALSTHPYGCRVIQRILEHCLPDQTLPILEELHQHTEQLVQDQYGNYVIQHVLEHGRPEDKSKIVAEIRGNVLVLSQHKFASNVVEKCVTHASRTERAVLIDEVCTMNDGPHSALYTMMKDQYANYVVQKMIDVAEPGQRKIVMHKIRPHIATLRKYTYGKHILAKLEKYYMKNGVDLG
Nature of the data set: EMSA; binds G exclusively at R7 position. The settings on record: label: Alexa680 at 5' and 3'.

For data set [11], the target named is T5, hPUF_MT(R8_N12S,Q16E, R3→R5, R4→R6) (R8 repeat N12S,Q16E).
T5 chain: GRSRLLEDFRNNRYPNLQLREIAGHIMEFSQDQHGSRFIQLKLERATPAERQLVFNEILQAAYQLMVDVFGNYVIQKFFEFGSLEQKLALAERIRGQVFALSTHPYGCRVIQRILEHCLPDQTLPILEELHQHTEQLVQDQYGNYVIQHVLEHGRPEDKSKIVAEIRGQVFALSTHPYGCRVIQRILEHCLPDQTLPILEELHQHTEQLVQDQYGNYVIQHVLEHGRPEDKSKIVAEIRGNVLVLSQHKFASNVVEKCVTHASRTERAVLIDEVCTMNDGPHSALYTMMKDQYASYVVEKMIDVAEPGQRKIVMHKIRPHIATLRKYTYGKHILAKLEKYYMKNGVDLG
Nature of the data set: EMSA; binds G exclusively. As to conditions: label: Alexa680 at 5' and 3'.

Data set [12] deals with T4, hPUF_MT(R3→R5, R4→R6). As to the kind of experiment: EMSA; binds U exclusively at R8 position. The settings on record: label: Alexa680 at 5' and 3'.
Data set [13] addresses T6, hPUF_MT(R5:C_13R)3(R6:U_13Y)3.
T6 chain: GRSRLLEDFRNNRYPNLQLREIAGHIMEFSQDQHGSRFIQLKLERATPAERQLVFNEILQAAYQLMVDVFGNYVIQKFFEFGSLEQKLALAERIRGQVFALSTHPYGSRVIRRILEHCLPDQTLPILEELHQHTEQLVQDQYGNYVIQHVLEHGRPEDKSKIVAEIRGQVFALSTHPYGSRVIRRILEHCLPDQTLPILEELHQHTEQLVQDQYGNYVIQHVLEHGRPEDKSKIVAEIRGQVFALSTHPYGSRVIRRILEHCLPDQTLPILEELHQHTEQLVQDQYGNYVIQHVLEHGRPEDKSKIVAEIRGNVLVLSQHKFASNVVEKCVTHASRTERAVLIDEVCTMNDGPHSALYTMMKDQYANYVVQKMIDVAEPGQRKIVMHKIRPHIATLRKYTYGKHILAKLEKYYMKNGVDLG
Nature of the data set: EMSA. The settings on record: label: Alexa680 at 5' and 3'.

The target of data set [14] is T7, hPUF_MT(R5:G_13R)3(R6:C_13Y)3.
T7 chain: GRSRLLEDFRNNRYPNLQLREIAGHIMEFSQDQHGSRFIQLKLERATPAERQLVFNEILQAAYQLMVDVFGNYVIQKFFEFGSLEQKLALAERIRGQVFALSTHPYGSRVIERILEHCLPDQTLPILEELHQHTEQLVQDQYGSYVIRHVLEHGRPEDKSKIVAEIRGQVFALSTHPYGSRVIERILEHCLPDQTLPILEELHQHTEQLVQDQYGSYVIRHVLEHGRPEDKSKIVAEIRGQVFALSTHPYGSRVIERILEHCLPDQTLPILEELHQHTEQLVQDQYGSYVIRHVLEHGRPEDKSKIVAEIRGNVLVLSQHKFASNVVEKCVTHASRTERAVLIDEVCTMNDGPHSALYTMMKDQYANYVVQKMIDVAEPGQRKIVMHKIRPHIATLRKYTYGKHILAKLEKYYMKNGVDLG
As to the kind of experiment: EMSA. The settings on record: label: Alexa680 at 5' and 3'.

For data set [15], the target named is T8, hPUF_MT(R7_E16R, R3→R5, R4→R6) (R7 repeat E16R).
T8 chain: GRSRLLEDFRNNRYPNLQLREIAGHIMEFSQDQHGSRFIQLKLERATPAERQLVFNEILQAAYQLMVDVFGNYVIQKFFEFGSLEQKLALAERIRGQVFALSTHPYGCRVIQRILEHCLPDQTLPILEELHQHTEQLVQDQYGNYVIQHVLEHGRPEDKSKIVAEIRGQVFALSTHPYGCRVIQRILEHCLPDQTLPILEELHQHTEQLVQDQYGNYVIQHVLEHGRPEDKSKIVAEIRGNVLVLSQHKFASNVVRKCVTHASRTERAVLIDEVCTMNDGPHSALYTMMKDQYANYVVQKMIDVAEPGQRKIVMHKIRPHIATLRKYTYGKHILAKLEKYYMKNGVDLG
As to the kind of experiment: EMSA; binds C and U. As to conditions: label: Alexa680 at 5' and 3'.

Data set [16] deals with T9, hPUF_MT(R7_S12N,E16Q, R3→R5, R4→R6) (R7 repeat S12N,E16Q).
T9 chain: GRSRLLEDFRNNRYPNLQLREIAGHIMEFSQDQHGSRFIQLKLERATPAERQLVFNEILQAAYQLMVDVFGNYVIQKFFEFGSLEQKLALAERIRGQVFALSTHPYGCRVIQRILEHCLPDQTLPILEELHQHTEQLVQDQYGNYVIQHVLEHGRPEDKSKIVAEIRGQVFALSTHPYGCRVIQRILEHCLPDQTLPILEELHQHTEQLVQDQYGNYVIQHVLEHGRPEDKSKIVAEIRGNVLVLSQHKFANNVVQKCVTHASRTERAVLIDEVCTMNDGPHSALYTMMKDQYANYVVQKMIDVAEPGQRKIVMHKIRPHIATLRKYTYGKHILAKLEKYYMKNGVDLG
As to the kind of experiment: EMSA; binds U exclusively. The settings on record: label: Alexa680 at 5' and 3'.

For “CCAGAAUUGUGUGUGUAUUCG [OTS-2004 (Example 5-6)]”, in [1], the binding signal (fold of R6 13Y protein) was 3. With CCAGAAUUGGAGAGAUAUUCG [OTS-2008], the binding signal (fold of 13Y protein) in data set [2] was less than 0.033. As for “CCAGAAUUGCACACAUAUUCG [OTS-2004 (Example 5-4)]”, the binding signal (fold of 13Y protein) in [3] came to 0.33. Consider CCAGAAUUGUCUCUCUAUUCG [OTS-2006], for which the binding signal (fold of 13Y protein) in data set [4] turned out to be 0.1.

Regarding CCAGAAUUGUAUAUAUAUUCG [OTS-1844], in data set [5], the binding signal (fold of 13Y protein) was less than 0.033. As to “CCAGAAUUGUGUGUGUAUUCG [OTS-2004 (Example 5-6, GU repeat)]”, in data set [6], the binding signal (fold weaker than (R5:G 13R)3(R6:U 13Y)3) amounted to 30.

B1: OTS-1924 (ssRNA)
RNA: CCAGAAUUGUAUAUAUAUAUUCG
B1: the binding result in data set [7] was “binds”.

B2: OTS-2024 (ssRNA)
RNA: CCAGAAUUGUAUAGAUUCG
In the case of B2, the binding result in data set [8] is given as “no binding”; in data set [9] it was “binds”.

B3: OTS-1754 (ssRNA)
RNA: CCAGAAUUAUAUAUAUUCG
Turning to B3, the binding result in data set [10] was “no binding”.

B4: OTS-2034 (ssRNA)
RNA: CCAGAAUGGUAUAUAUUCG
As for B4, the binding result in data set [11] is given as “binds”; in data set [12] it was “no binding”.

B5: OTS-2023 (ssRNA)
RNA: CCAGAAUUGUAUAAAUUCG
On to B5, for which the binding result in [8] and in [9] was “no binding” each time.

B6: OTS-2006 (ssRNA)
RNA: CCAGAAUUGUCUCUCUAUUCG
On to B6, for which the binding result in data set [13] was “binds”.

B7: OTS-2007 (ssRNA)
RNA: CCAGAAUUGCGCGCGUAUUCG
Take B7: in [14], the binding result is reported as “binds”.

B8: OTS-2033 (ssRNA)
RNA: CCAGAAUUCUAUAUAUUCG
For B8, the binding result in data set [15] was “binds”; in data set [16], “no binding”; in data set [10], “no binding”.

B9: OTS-2025 (ssRNA)
RNA: CCAGAAUUGUAUACAUUCG
As for B9, the binding result in data set [8] is “binds”; in [9] it was “no binding”.
